Test results taken from PMC12315504 (The FASEB Journal, 2021).
Like-named read-outs stand apart in the source and are kept apart here.

Assays:
non-reducing SDS-PAGE [1] = target: the molecule itself; assay: non-reducing SDS-PAGE
non-reducing SDS-PAGE [2] = target: the molecule itself; assay: non-reducing SDS-PAGE; remark: listed apart in the source

Row | Protein | stoichiometry N (non-reducing SDS-PAGE [1]) | stoichiometry N (non-reducing SDS-PAGE [2])
1 | Fgf15 (wild-type, mouse), in Hek293T conditioned medium (ligand, UniProt O35622 26-218, looked up) RPLAQQSQSVSDEDPLFLYGWGKITRLQYLYSAGPYVSNCFLRIRSDGSVDCEEDQNERNLLEFRAVALKTIAIKDVSSVRYLCMSADGKIYGLIRYSEEDCTFREEMDCLGYNQYRSMKHHLHIIFIQAKPREQLQDQKPSNFIPVFHRSFFETGDQLRSKMFSLPLESDSMDPFRMVEDVDHLVKSPSFQK | 2 | –
2 | Fgf15 (wild-type, mouse), in serum of mice after hydrodynamic delivery of the plasmid (ligand, UniProt O35622 26-218, looked up) RPLAQQSQSVSDEDPLFLYGWGKITRLQYLYSAGPYVSNCFLRIRSDGSVDCEEDQNERNLLEFRAVALKTIAIKDVSSVRYLCMSADGKIYGLIRYSEEDCTFREEMDCLGYNQYRSMKHHLHIIFIQAKPREQLQDQKPSNFIPVFHRSFFETGDQLRSKMFSLPLESDSMDPFRMVEDVDHLVKSPSFQK | – | 2
